Patent US20020147306A1, “Peptides that modulate the interaction of B class ephrins and PDZ domains” (priority 1998, published 2002)

Key:
Test in all cases: fluorescence polarization, 25 nM fluorescein-labelled peptide, GST fusion titrated, 22 C
[1] = biological target: fluorescein-labelled NIpYpYKV peptide
[2] = biological target: fluorescein-labelled NIYpYKV peptide
[3] = biological target: fluorescein-labelled NIpYYKV peptide
[4] = biological target: fluorescein-labelled NIYYKV peptide

Sequence of GST-FAP-1 PDZ5 fusion protein (P08515 whole entry, the tested form may be a part): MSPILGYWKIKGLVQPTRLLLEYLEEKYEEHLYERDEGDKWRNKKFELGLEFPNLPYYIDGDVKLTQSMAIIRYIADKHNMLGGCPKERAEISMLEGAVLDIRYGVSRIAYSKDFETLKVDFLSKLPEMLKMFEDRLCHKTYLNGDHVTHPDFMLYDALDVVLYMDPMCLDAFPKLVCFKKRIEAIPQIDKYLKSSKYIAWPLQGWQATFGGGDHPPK

| Kd [1] [µM] | Kd [2] [µM] | Kd [3] [µM] | Kd [4] [µM] | Substance |
| --- | --- | --- | --- | --- |
| 8.4 | 15.4 | 6.8 | 9.9 | GST-FAP-1 PDZ5 fusion protein (from UniProt P08515 1-218) |
| – | – | – | 65 | GST-FAP-1 PDZ3 fusion protein (from UniProt Q12923 1368-1452) |
